The text below walks through data of patent publication US20250163162A1.

First the molecules themselves.
T1: IL10Rα and IL2Rγ on human primary cells (CD8 T cells, CD4 T cells, monocytes) (human) (UniProt Q13651)
T1 sequence (looked up) 1: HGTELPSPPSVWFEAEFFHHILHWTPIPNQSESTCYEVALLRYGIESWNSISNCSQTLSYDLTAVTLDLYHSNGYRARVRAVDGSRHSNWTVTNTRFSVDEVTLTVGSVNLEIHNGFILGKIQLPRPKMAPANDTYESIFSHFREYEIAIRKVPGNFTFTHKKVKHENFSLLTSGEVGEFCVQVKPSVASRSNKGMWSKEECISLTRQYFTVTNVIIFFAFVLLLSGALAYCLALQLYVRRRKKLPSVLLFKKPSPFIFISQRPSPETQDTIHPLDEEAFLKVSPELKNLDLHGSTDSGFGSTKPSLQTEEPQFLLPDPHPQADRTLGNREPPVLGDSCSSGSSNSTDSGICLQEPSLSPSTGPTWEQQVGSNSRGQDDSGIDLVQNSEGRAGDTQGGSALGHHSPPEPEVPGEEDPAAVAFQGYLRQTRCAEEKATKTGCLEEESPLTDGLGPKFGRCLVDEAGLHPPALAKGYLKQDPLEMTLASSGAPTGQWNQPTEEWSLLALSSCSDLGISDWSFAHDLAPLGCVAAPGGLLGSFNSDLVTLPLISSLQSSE
T1 sequence (looked up) 2: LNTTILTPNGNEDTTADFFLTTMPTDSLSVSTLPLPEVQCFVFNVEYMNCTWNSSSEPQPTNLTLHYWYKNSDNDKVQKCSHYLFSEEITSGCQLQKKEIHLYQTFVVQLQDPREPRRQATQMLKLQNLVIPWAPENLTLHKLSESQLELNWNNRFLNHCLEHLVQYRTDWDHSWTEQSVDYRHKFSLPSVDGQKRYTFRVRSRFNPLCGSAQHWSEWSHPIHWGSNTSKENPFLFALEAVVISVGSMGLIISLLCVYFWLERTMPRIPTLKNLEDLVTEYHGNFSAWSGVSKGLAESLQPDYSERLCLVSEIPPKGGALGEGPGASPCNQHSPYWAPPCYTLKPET

B1: hIL10Ra_VHH14-hIL2Rg_VHH19, no linker, tag his (bispecific antibody, not shown: small tags and cut ends)
chain: QVQLQESGGGSVQAGGSLRLSCGASGYTYSSYCMGWFRQVPGKEREGVAVIDSDGSTSYADSVKGRFTISKDNGKNTLYLQMNSLKPEDTAMYYCAADLGHYRPPCGVLYLGMDYWGKGTQVTVSSQVQLQESGGGSVQAGGSLRLSCTASGFTFDDREMNWYRQAPGNECELVSTISSDGSTYYADSVKGRFTISQDNAKNTVYLQMDSVKPEDTAVYYCAADFMIAIQAPGAGCWGQGTQVTVSS
B2: hIL10Ra_VHH14-hIL2Rg_VHH19, linker GS, tag his (bispecific antibody, not shown: small tags and cut ends)
chain: QVQLQESGGGSVQAGGSLRLSCGASGYTYSSYCMGWFRQVPGKEREGVAVIDSDGSTSYADSVKGRFTISKDNGKNTLYLQMNSLKPEDTAMYYCAADLGHYRPPCGVLYLGMDYWGKGTQVTVSSGSQVQLQESGGGSVQAGGSLRLSCTASGFTFDDREMNWYRQAPGNECELVSTISSDGSTYYADSVKGRFTISQDNAKNTVYLQMDSVKPEDTAVYYCAADFMIAIQAPGAGCWGQGTQVTVSS
B3: hIL10Ra_VHH14-hIL2Rg_VHH19, linker GGGS, tag his (bispecific antibody, not shown: small tags and cut ends)
chain: QVQLQESGGGSVQAGGSLRLSCGASGYTYSSYCMGWFRQVPGKEREGVAVIDSDGSTSYADSVKGRFTISKDNGKNTLYLQMNSLKPEDTAMYYCAADLGHYRPPCGVLYLGMDYWGKGTQVTVSSGGGSQVQLQESGGGSVQAGGSLRLSCTASGFTFDDREMNWYRQAPGNECELVSTISSDGSTYYADSVKGRFTISQDNAKNTVYLQMDSVKPEDTAVYYCAADFMIAIQAPGAGCWGQGTQVTVSS
B4: hIL10Ra_VHH14-hIL2Rg_VHH19, linker GGSGGS, tag his (bispecific antibody, not shown: small tags and cut ends)
chain: QVQLQESGGGSVQAGGSLRLSCGASGYTYSSYCMGWFRQVPGKEREGVAVIDSDGSTSYADSVKGRFTISKDNGKNTLYLQMNSLKPEDTAMYYCAADLGHYRPPCGVLYLGMDYWGKGTQVTVSSGGSGGSQVQLQESGGGSVQAGGSLRLSCTASGFTFDDREMNWYRQAPGNECELVSTISSDGSTYYADSVKGRFTISQDNAKNTVYLQMDSVKPEDTAVYYCAADFMIAIQAPGAGCWGQGTQVTVSS

The target of this assay is T1, IL10Rα and IL2Rγ on human primary cells (CD8 T cells, CD4 T cells, monocytes) (human). In words: cell-based or functional assay.
For the molecule B1, the pSTAT3 (MFI) in CD4 T cells at 0.0001 µM worked out at 12200 MFI, the pSTAT3 (MFI) in CD4 T cells at 0.001 µM was 12900 MFI, the pSTAT3 (MFI) in CD4 T cells at 0.01 µM is 12500 MFI and the pSTAT3 (MFI) in CD4 T cells at 0.1 µM was found to be 11000 MFI. The pSTAT3 (MFI) in CD4 T cells at 1 µM is 12100 MFI, the pSTAT3 (MFI) in CD4 T cells at 10 µM came out at 11800 MFI, the pSTAT3 (MFI) in CD4 T cells at 100 µM is 9040 MFI and the pSTAT3 (MFI) in CD8 T cells at 0.0001 µM worked out at 7380 MFI. This molecule also had a pSTAT3 (MFI) in CD8 T cells at 0.001 µM of 7740 MFI, a pSTAT3 (MFI) in CD8 T cells at 0.01 µM of 7800 MFI, a pSTAT3 (MFI) in CD8 T cells at 0.1 µM of 6780 MFI and a pSTAT3 (MFI) in CD8 T cells at 1 µM of 7720 MFI. This molecule had a pSTAT3 (MFI) in CD8 T cells at 10 µM of 7490 MFI, a pSTAT3 (MFI) in CD8 T cells at 100 µM of 6200 MFI, a pSTAT3 (MFI) in monocytes at 0.0001 µM of 3970 MFI and a pSTAT3 (MFI) in monocytes at 0.001 µM of 4600 MFI. For the same molecule, the pSTAT3 (MFI) in monocytes at 0.01 µM was 4420 MFI, the pSTAT3 (MFI) in monocytes at 0.1 µM amounted to 4420 MFI, the pSTAT3 (MFI) in monocytes at 1 µM worked out at 4480 MFI and the pSTAT3 (MFI) in monocytes at 10 µM was determined as 4330 MFI. Also, the pSTAT3 (MFI) in monocytes at 100 µM stood at 4140 MFI.
In the case of B2, the pSTAT3 (MFI) in CD4 T cells at 0.0001 µM is 11700 MFI, the pSTAT3 (MFI) in CD4 T cells at 0.001 µM stood at 12800 MFI, the pSTAT3 (MFI) in CD4 T cells at 0.01 µM was found to be 13600 MFI and the pSTAT3 (MFI) in CD4 T cells at 0.1 µM turned out to be 10900 MFI. The same molecule registered a pSTAT3 (MFI) in CD4 T cells at 1 µM of 12900 MFI, a pSTAT3 (MFI) in CD4 T cells at 10 µM of 12600 MFI, a pSTAT3 (MFI) in CD4 T cells at 100 µM of 11600 MFI and a pSTAT3 (MFI) in CD8 T cells at 0.0001 µM of 7400 MFI. For the same molecule, the pSTAT3 (MFI) in CD8 T cells at 0.001 µM came to 8110 MFI, the pSTAT3 (MFI) in CD8 T cells at 0.01 µM was determined as 8110 MFI, the pSTAT3 (MFI) in CD8 T cells at 0.1 µM amounted to 7100 MFI and the pSTAT3 (MFI) in CD8 T cells at 1 µM was found to be 8200 MFI. The molecule also returned a pSTAT3 (MFI) in CD8 T cells at 10 µM of 8410 MFI, a pSTAT3 (MFI) in CD8 T cells at 100 µM of 7900 MFI, a pSTAT3 (MFI) in monocytes at 0.0001 µM of 4040 MFI and a pSTAT3 (MFI) in monocytes at 0.001 µM of 4820 MFI. The same molecule returned a pSTAT3 (MFI) in monocytes at 0.01 µM of 4010 MFI, a pSTAT3 (MFI) in monocytes at 0.1 µM of 4430 MFI, a pSTAT3 (MFI) in monocytes at 1 µM of 4790 MFI and a pSTAT3 (MFI) in monocytes at 10 µM of 4930 MFI. This molecule displayed a pSTAT3 (MFI) in monocytes at 100 µM of 4930 MFI.
For the molecule B3, the pSTAT3 (MFI) in CD4 T cells at 0.0001 µM came to 11900 MFI, the pSTAT3 (MFI) in CD4 T cells at 0.001 µM was 12100 MFI, the pSTAT3 (MFI) in CD4 T cells at 0.01 µM was 11700 MFI and the pSTAT3 (MFI) in CD4 T cells at 0.1 µM was found to be 9670 MFI. Besides, the pSTAT3 (MFI) in CD4 T cells at 1 µM is 9590 MFI, the pSTAT3 (MFI) in CD4 T cells at 10 µM amounted to 11400 MFI, the pSTAT3 (MFI) in CD4 T cells at 100 µM was 14700 MFI and the pSTAT3 (MFI) in CD8 T cells at 0.0001 µM was determined as 7210 MFI. The molecule also showed a pSTAT3 (MFI) in CD8 T cells at 0.001 µM of 7460 MFI, a pSTAT3 (MFI) in CD8 T cells at 0.01 µM of 7200 MFI, a pSTAT3 (MFI) in CD8 T cells at 0.1 µM of 6580 MFI and a pSTAT3 (MFI) in CD8 T cells at 1 µM of 6500 MFI. The pSTAT3 (MFI) in CD8 T cells at 10 µM was determined as 7930 MFI, the pSTAT3 (MFI) in CD8 T cells at 100 µM was 9970 MFI, the pSTAT3 (MFI) in monocytes at 0.0001 µM worked out at 4150 MFI and the pSTAT3 (MFI) in monocytes at 0.001 µM was 4510 MFI. The molecule also registered a pSTAT3 (MFI) in monocytes at 0.01 µM of 4360 MFI, a pSTAT3 (MFI) in monocytes at 0.1 µM of 4280 MFI, a pSTAT3 (MFI) in monocytes at 1 µM of 4640 MFI and a pSTAT3 (MFI) in monocytes at 10 µM of 4840 MFI. This molecule also yielded a pSTAT3 (MFI) in monocytes at 100 µM of 4880 MFI.
B4 yielded a pSTAT3 (MFI) in CD4 T cells at 0.0001 µM of 13200 MFI, a pSTAT3 (MFI) in CD4 T cells at 0.001 µM of 13900 MFI, a pSTAT3 (MFI) in CD4 T cells at 0.01 µM of 12800 MFI and a pSTAT3 (MFI) in CD4 T cells at 0.1 µM of 13600 MFI. The same molecule returned a pSTAT3 (MFI) in CD4 T cells at 1 µM of 13000 MFI, a pSTAT3 (MFI) in CD4 T cells at 10 µM of 11800 MFI, a pSTAT3 (MFI) in CD4 T cells at 100 µM of 10200 MFI and a pSTAT3 (MFI) in CD8 T cells at 0.0001 µM of 7960 MFI. The pSTAT3 (MFI) in CD8 T cells at 0.001 µM came to 8500 MFI, the pSTAT3 (MFI) in CD8 T cells at 0.01 µM stood at 7660 MFI, the pSTAT3 (MFI) in CD8 T cells at 0.1 µM was determined as 8160 MFI and the pSTAT3 (MFI) in CD8 T cells at 1 µM turned out to be 7720 MFI. This molecule also had a pSTAT3 (MFI) in CD8 T cells at 10 µM of 8300 MFI, a pSTAT3 (MFI) in CD8 T cells at 100 µM of 7000 MFI, a pSTAT3 (MFI) in monocytes at 0.0001 µM of 4220 MFI and a pSTAT3 (MFI) in monocytes at 0.001 µM of 4680 MFI. The same molecule displayed a pSTAT3 (MFI) in monocytes at 0.01 µM of 4560 MFI, a pSTAT3 (MFI) in monocytes at 0.1 µM of 4470 MFI, a pSTAT3 (MFI) in monocytes at 1 µM of 4750 MFI and a pSTAT3 (MFI) in monocytes at 10 µM of 4890 MFI. The molecule further gave a pSTAT3 (MFI) in monocytes at 100 µM of 4730 MFI.
